This is an account of results in the supplement of paper PMC10201428.

± gives the standard deviation of the averaged measurements.

For data set [1], the system named is VchCAST RNA-guided transposition machinery (E. coli BL21(DE3) host, lacZ target). As to the kind of experiment: relative integration efficiency (T-RL orientation) vs wild-type transposon end (log2 (normalized fold change)); transposon end mutated: left end; higher = more efficient transposition. The method, boiled down:
(§1)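 Each barcoded pool, 1549 left-end or 1849 right-end transposon variants in a pUC57 mini-transposon donor, went into E. coli BL21(DE3) with a T7-driven effector plasmid (CRISPR array, tniQ-cas8-cas7-cas6, tnsA-tnsB-tnsC). Plates contained 0.1 mM IPTG and were held at 37°C for 18 h. Input plasmids and genomic integration junctions were PCR-amplified and read by Illumina sequencing, with two biological output replicates and four reference barcodes. Relative integration efficiency is the fold change of output over input barcode abundance, normalised to the reference barcodes and log-transformed.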

Data set [2] shares this test system. As to the kind of experiment: relative integration efficiency (T-LR orientation) vs wild-type transposon end (log2 (normalized fold change)); transposon end mutated: left end; higher = more efficient transposition. The method, boiled down:
as §1

For “AATGTTGTTGATGCAACCATAAAGTGATATTTAATAATTATTTATAATCAGCAACTTACAACCATATATTGATATCTCACAAAACAACCATAAGTTGATATTTTACCACAAAATGTGAATCGAGTATTTCAGCAAAACTACTGCAGTAAGAA”, the figures for the “relative integration efficiency (log2)” value in data set [1] and in data set [2] were -1 ± 0.61 and -1.12 ± 1.1, respectively.

“AATGTTGTTGATGCAACCAATTTCTGATATTTAATAATTATTTATAATCAGCAACTTAACCACAAAACAACCAATATATGATATCTCACAAAACAACCAATTCATGATATTTTTGTGAATCGAGTATTTCAGCAAAACTACTGCAGTAAGAA”: the “relative integration efficiency (log2)” value is -2.5 ± 1.1 in data set [1] and -1.57 ± 0.77 in data set [2].

As for “AATGTTGTTGATGTGCAACCATAAAGTGATATTTAATAATTATTTATAATCAGCAACTTAACCACAAAACAACCATATATTGATATCTCACAAAACAACCATAAGTTGATATTTTTGTGAATCGAGTATTTCAGCAAAACTACTGCAGTAAG”, the “relative integration efficiency (log2)” value is -6.45 ± 0.8 in data set [1] and less than -10 in data set [2].

Turning to “AATGTTGTTGATGCAACCATAAAGTGATATTTAATAATTATTTATAATCAGCAACTTAACCACAAAACAACCATATATTGATATCTCACAAAACAACCATAAGTTGATCGGGGGTGTCCGATCTGATTTCAGCAAAACTACTGCAGTAAGAA”, the “relative integration efficiency (log2)” value in data set [1] was -1.03 ± 0.49; in data set [2], -1.32 ± 0.59.

Regarding “AATGTTGTTGATGCAACCATAAAGTGATATTTAATAATTATTTATAATCAGCAACTTAACCACAAAACAACCATATATTGATATCTCACAAAACAACACGCCTGGTCGCGGGGGTGTCCGATCTGATTTCAGCAAAACTACTGCAGTAAGAA”, the “relative integration efficiency (log2)” value is -2.49 ± 0.9 in data set [1] and -0.741 ± 1.6 in data set [2].

For the sequence “AATGTTGTTGATGCAACCATAAAGTGATATTTACGCCGGCGGGCGCCGACTACCAGGCCAACACCCCACCAACGCGCGGTCGCGAGACACCCCACCAACGCCTGGTCGCGGGGGTGTCCGATCTGATTTCAGCAAAACTACTGCAGTAAGAA”, the “relative integration efficiency (log2)” value was -6.9 ± 0.36 in data set [1] and -6.15 ± 3.6 in data set [2].

In the case of “AATGTTGTTGATGTAATTATCATTTTATGGTTGATAATTATTTATAATCAGCAACTTAACCACAAAATAATTATCATTTTATGGTTGACAAAATAATTATCATTTTATGGTTGTGTGAATCGAGTATTTCAGCAAAACTACTGCAGTAAGAA”, the “relative integration efficiency (log2)” value in data set [1] and in data set [2] was less than -10 throughout.

Take “AATGTTGTTGATGCAACCATAAGTTGATATTTTATAATTATTTATAATCAGCAACTTAACCACAAAACAACCATAAGTTGATATTTTACAAAAGTTGGTATTCAACTATAAAATGTGAATCGAGTATTTCAGCAAAACTACTGCAGTAAGAA”: the “relative integration efficiency (log2)” value is -3.19 ± 1.4 in data set [1] and -1.03 ± 2.3 in data set [2].

For the sequence “AATGTTGTTGATGCAACCATAAAGTGATATTTAATAATTATTTATCAACCATAAAGTGATATTTAACCAACCATATATTGATATCTCACAAAACAACCATAAGTTGATATTTTTGTGAATCGAGTATTTCAGCAAAACTACTGCAGTAAGAA”, the “relative integration efficiency (log2)” value in data set [1] is -6.32 ± 2.1; in data set [2], -2.57 ± 2.

On to “AATGTTGTTGATGCAACCATAAAGTGATATTTAATCCGGCGGGCGCCGACTACCAGGCCAACACCCCACCAACGCGCGGTCGCGAGACACCCCACCAACGCCTGGTCGCGGGGGTGTCCGATCTGATTTCAGCAAAACTACTGCAGTAAGAA”, for which the results for the “relative integration efficiency (log2)” value in data set [1] and in data set [2] were -6.75 ± 1.3 and -4.25 ± 1, respectively.

In the case of “AATGTTGTTGATGCAACCATATATTGATATCTCATAATTATTTATAATCAGCAACTTAACCACAAAACAACCATATATTGATATCTCACAAAAGTTGGTATTCAACTATAAAATGTGAATCGAGTATTTCAGCAAAACTACTGCAGTAAGAA”, the “relative integration efficiency (log2)” value was -3.5 ± 1.4 in data set [1] and -2.34 ± 0.9 in data set [2].

Take “AATGTTGTTGATGCAACCATAAAGTGATATTTACAACCATATATTGATATCTCACAAAACAACCATAAGTTGATATTTTATAATTATTTATAATCAGCAACTTAACCACAAAATGTGAATCGAGTATTTCAGCAAAACTACTGCAGTAAGAA”: the figures for the “relative integration efficiency (log2)” value in data set [1] and in data set [2] were -1.4 ± 0.65 and 0.848 ± 1, respectively.

As to “AATGTTGTTGATGTGTTGCAACCATAAAGTGATATTTAATAATTATTTATAATCAGCAACTTAACCACAAAACAACCATATATTGATATCTCACAAAACAACCATAAGTTGATATTTTTGTGAATCGAGTATTTCAGCAAAACTACTGCAGT”, the “relative integration efficiency (log2)” value was -6.86 ± 1.7 in data set [1] and less than -10 in data set [2].

Turning to “AATGTTGTTGATGCAACCATAAAGTGATATTTAATAATTATTTATAATCAGCAACTTAACCACAAAAACCAACGCGCGGTCGCGAGACACCCCACCAACGCCTGGTCGCGGGGGTGTCCGATCTGATTTCAGCAAAACTACTGCAGTAAGAA”, the “relative integration efficiency (log2)” value in data set [1] is -7.55 ± 2; in data set [2] it was -4.28 ± 1.

On to “AATGTTGTTGATGCAACCATAAAGTGATATTTAATAATTATTTATACAACCATAAAGTGATATTTAACAACCATATATTGATATCTCACAAAACAACCATAAGTTGATATTTTTGTGAATCGAGTATTTCAGCAAAACTACTGCAGTAAGAA”, for which the figures for the “relative integration efficiency (log2)” value in data set [1] and in data set [2] were -6.31 ± 0.44 and -4.48 ± 0.05, respectively.

As to “AATGTTGTTGATGCAACCATAAAGTGATATTTACAACCATAAAGTGATATTTAACTTAACCACAAAACAACCATATATTGATATCTCACAAAACAACCATAAGTTGATATTTTTGTGAATCGAGTATTTCAGCAAAACTACTGCAGTAAGAA”, the “relative integration efficiency (log2)” value in data set [1] is -3.13 ± 0.76; in data set [2] it was 1.11 ± 0.91.

“AATGTTGTTGATGCAACCATAAAGTGATATTTAATAATTATTTATAATCAACCATATATTGATATCTCACAAAACAACCATAAGTTGATATTTTTGTGAATCGAGTATTTCAGCAAAACTACTGCAGTAAGAAAGTTACTTCGTGGTATGGG”: the “relative integration efficiency (log2)” value in data set [1] is -6.16 ± 1.6; in data set [2], -4.56 ± 2.6.

As for “AATGTTGTTGATGCAACCATAAAGTGATATTTAATAATTATTTATAATCAGCAACTTAACCACAAAACAACCATATATTGATATCTCACACAACCATAAGTTGATATTTTTGTGAATCGAGTATTTCAGCAAAACTACTGCAGTAAGAAAGT”, the entries for the “relative integration efficiency (log2)” value in data set [1] and in data set [2] were -3.26 ± 0.94 and -1.4 ± 0.91, respectively.

Consider “AATGTTGTTGATGCAACCATAAAGTGATATTTAATAATTATTTATAATCAGCAACTTAACCACAAAACAACCATATATTGATATCACAAAACAACCATAAGTTGATATTTTTGTGAATCGAGTATTTCAGCAAAACTACTGCAGTAAGAAAG”, for which the “relative integration efficiency (log2)” value in data set [1] is -2.64 ± 0.93; in data set [2], -0.718 ± 0.95.

For “AATGTTGTTGATGCAACCATAAAGTGATATTTAATAATTATTTATAATCAGCAACTTAACCACAAAACAACCATATATTGATATCTACACCCCACCAACGCCTGGTCGCGGGGGTGTCCGATCTGATTTCAGCAAAACTACTGCAGTAAGAA”, the “relative integration efficiency (log2)” value in data set [1] is -2.46 ± 1; in data set [2] it was -1.16 ± 1.5.

Take “AATGTTGTTGATGCAACCATACCTGTCGCGGGCCGCCGGCGGGCGCCGACTACCAGGCCAACACCCCACCAACGCGCGGTCGCGAGACACCCCACCAACGCCTGGTCGCGGGGGTGTCCGATCTGATTTCAGCAAAACTACTGCAGTAAGAA”: the “relative integration efficiency (log2)” value in data set [1] and in data set [2] was less than -10 in each case.

For the sequence “AATGTTGTTGATGCAACCATAAAGTGATATTTACAACCATATATTGATATCTCACAAACAACCATAAGTTGATATTTTTGTGAATCGAGTATTTCAGCAAAACTACTGCAGTAAGAAAGTTACTTCGTGGTATGGGAGGATCAAGGAGCCAA”, the “relative integration efficiency (log2)” value was -2 ± 0.74 in data set [1] and 2.04 ± 0.88 in data set [2].
